Data taken from PMC7660911.
“And” between values parts separate entries of the source, which are not always exact repeats. Identical values can stand only once.

Molecular target: pVHL172-BirA(R118G)-HA fusion protein (human) (UniProt P40337)
Assay: proximity labelling; BioID with truncated VHL-BirA constructs in HeLa and 786-O cells; blots quantified as biotinylated prefoldin / pVHL expression level, full-length VHL213-BirA set as 1 (Fig 1C)

| Substance | fold lower binding than with the exons 2&3 version |
| --- | --- |
| Prefoldin subunit 1 (from UniProt O60925 1-122) (natural protein) | 4 fold and 5 fold |
| Prefoldin subunit 3 (from UniProt P61758-1 1-197) (natural protein) | 4 fold and 5 fold |
